This note sets out measurements from publication PMC10625565.

For this assay, the target named is GST-PpROP4CA (G15V). The assay can be described thus: pull-down (MBP pull-down, anti-GST western blot, band quantification). The following applies: three replicates; parent: est. 0.17; read off a plot. On the technique in general: Immunoblotting shows a protein as a band on a membrane.

Regarding MBP-PpREN (wild type) R204L, the other: Protein ratio was found to be 0.17.
